In patent US20240361328A1:

Assays:
[1] = molecular target: anti-CD19 CAR (clone FMC63), second-generation, C-terminal meGFP (human) (UniProt P01732); experiment: flow cytometry specificity staining, matched CAR cells
[2] = molecular target: anti-CD19 CAR (clone FMC63), second-generation, C-terminal meGFP (human) (UniProt P01732); experiment: flow cytometry staining titration, αCD19-CAR-transduced Jurkat cells
[3] = molecular target: anti-CD19 CAR (clone FMC63), second-generation, C-terminal meGFP (human) (UniProt P01732); experiment: flow cytometry staining titration, anti-CD19 CAR-transduced Jurkat cells
[4] = molecular target: anti-CD19 CAR (clone FMC63), second-generation, C-terminal meGFP (human) (UniProt P01732); experiment: flow cytometry spike-in assay, 'Low Clone' and 'Mid Clone' anti-CD19 CAR-meGFP cells among mCherry non-CAR cells
[5] = molecular target: anti-CD19 CAR (clone FMC63), second-generation, C-terminal meGFP (human) (UniProt P01732); experiment: magnetic selection with APC-labeled multimer and anti-APC magnetic particles, 'Low Clone'
[6] = molecular target: anti-CD19 CAR (clone FMC63), second-generation, C-terminal meGFP (human) (UniProt P01732); experiment: flow cytometry staining titration, CAR-transduced Jurkat cells
[7] = molecular target: anti-CD19 CAR (clone FMC63), second-generation, C-terminal meGFP (human) (UniProt P01732); experiment: flow cytometry staining titration, dose-response fit
[8] = molecular target: anti-CD19 CAR (clone FMC63), second-generation, C-terminal meGFP (human) (UniProt P01732); experiment: cell-based or functional assay
[9] = molecular target: anti-CD19 CAR (clone FMC63), second-generation, C-terminal meGFP (human) (UniProt P01732); experiment: magnetic selection with APC-labeled multimer and anti-APC magnetic particles, 'Mid Clone'
[10] = molecular target: anti-CD19 CAR (clone FMC63), second-generation, C-terminal meGFP (human) (UniProt P01732); experiment: flow cytometry spike-in assay, 'Mid Clone' at 10%

percent of CAR-expressing cells detected [1] | percent of CD19 CAR-expressing cells detected at saturated concentrations [2] | efficiency of detection against antigen-monomer [3] | sensitivity [4] | percent of CAR+ cells retained in the column [5] | percent of target cells detected at the maximum concentration [6] | fold staining efficiency (1/EC50) against anti FMC63 antibody [7] | CAR-T cells as percent of total cell population (49% without multimer) [8] | CD69+CD25+ cells in CD4+ CAR-T cell sub-population (17% without multimer) [8] | CD69+CD25+ cells in CD8+ CAR-T cell sub-population (5% without multimer) [8] | PD-1+ CAR-T cells in CD4+ CAR-T cell sub-population (25% without multimer) [8] | PD-1+ CAR-T cells in CD8+ CAR-T cell sub-population (2% without multimer) [8] | percent of CAR+ cells retained in the column [9] | percent of cells detected [10] | Substance
> 90% | 90% | 25 % higher | > 90% | 35% | > 92% | 40 fold | 70% | 28% | 38% | 25% | 6% | 55% | – | CD19 antigen-dodecamer (from UniProt P22629 37-163)
> 90% | 93% | 25 % higher | > 90% | 35% | > 92% | 8 fold | 61% | 26% | 28% | 26% | 6% | 55% | – | CD19 antigen-streptavidin tetramer (from UniProt P22629 37-163)
– | – | – | – | – | – | – | – | – | – | – | – | – | 90% | Protein L (Thermo Fisher Scientific, 29997)
